# Reference: paper PMC7058304 (PLoS ONE, 2020)
# B1: mAb17 (antibody, V domains shown)
# VH: EVQLVESGGGLVQPGGSLRLSCAASGFTFSSYMMSWVRQAPGKGLEWVATISGGGANTYYPDSVKGRFTISRDNAKNSLYLQMNSLRAEDTAVYYCARQLYYFDYWGQGTTVTVSS
# VL: DIQMTQSPSSLSASVGDRVTITCLASQTIGTWLTWYQQKPGKAPKLLIYTATSLADGVPSRFSGSGSGTDFTLTISSLQPEDFATYYCQQVYSIPWTFGGGTKVEIK
# notes: IgG4; also called analog of camrelizumab; camre; source: HEK293 suspension cells, cotransfected, purified (Protein A)
# B2: mAb04 (antibody, V domains shown)
# VH: QVQLVQSGAEVKKPGASVKVSCKASGYSFTSYWMNWVRQAPGQGLEWIGVIHPSDSETWLDQKFKDRVTITVDKSTSTAYMELSSLRSEDTAVYYCAREHYGTSPFAYWGQGTLVTVSS
# VL: EIVLTQSPATLSLSPGERATLSCRASESVDNYGMSFMNWFQQKPGQPPKLLIHAASNQGSGVPSRFSGSGSGTDFTLTISSLEPEDFAVYFCQQSKEVPYTFGGGTKVEIK
# notes: IgG4; also called analog of retifanlimab; retifan; source: HEK293 suspension cells, cotransfected, purified (Protein A)
# B3: mAb03 (antibody, V domains shown)
# VH: QVQLQESGPGLVKPSETLSLTCTVSGFSLTSYGVHWIRQPPGKGLEWIGVIYADGSTNYNPSLKSRVTISKDTSKNQVSLKLSSVTAADTAVYYCARAYGNYWYIDVWGQGTTVTVSS
# VL: DIVMTQSPDSLAVSLGERATINCKSSESVSNDVAWYQQKPGQPPKLLINYAFHRFTGVPDRFSGSGYGTDFTLTISSLQAEDVAVYYCHQAYSSPYTFGQGTKLEIK
# notes: IgG4; also called analog of tislelizumab; tisle; source: HEK293 suspension cells, cotransfected, purified (Protein A)
# B4: mAb16 (antibody, V domains shown)
# VH: EVQLLESGGGLVQPGGSLRLSCAASGFTFSSYDMSWVRQAPGKGLEWVSTISGGGSYTYYQDSVKGRFTISRDNSKNTLYLQMNSLRAEDTAVYYCASPYYAMDYWGQGTTVTVSS
# VL: DIQLTQSPSFLSAYVGDRVTITCKASQDVGTAVAWYQQKPGKAPKLLIYWASTLHTGVPSRFSGSGSGTEFTLTISSLQPEDFATYYCQHYSSYPWTFGQGTKLEIK
# notes: IgG4; also called analog of dostarlimab; dostar; source: HEK293 suspension cells, cotransfected, purified (Protein A)
# B5: mAb23 (antibody, V domains shown)
# VH: EVQLLESGGVLVQPGGSLRLSCAASGFTFSNFGMTWVRQAPGKGLEWVSGISGGGRDTYFADSVKGRFTISRDNSKNTLYLQMNSLKGEDTAVYYCVKWGNIYFDYWGQGTLVTVSS
# VL: DIQMTQSPSSLSASVGDSITITCRASLSINTFLNWYQQKPGKAPNLLIYAASSLHGGVPSRFSGSGSGTDFTLTIRTLQPEDFATYYCQQSSNTPFTFGPGTVVDFR
# notes: IgG4; also called analog of cemiplimab; cemip; source: HEK293 suspension cells, cotransfected, purified (Protein A)
# B6: mAb21 (analog of sintilimab) (antibody, V domains shown)
# VH: QVQLVQSGAEVKKPGSSVKVSCKASGGTFSSYAISWVRQAPGQGLEWMGLIIPMFDTAGYAQKFQGRVAITVDESTSTAYMELSSLRSEDTAVYYCARAEHSSTGTFDYWGQGTLVTVSS
# VL: DIQMTQSPSSVSASVGDRVTITCRASQGISSWLAWYQQKPGKAPKLLISAASSLQSGVPSRFSGSGSGTDFTLTISSLQPEDFATYYCQQANHLPFTFGGGTKVEIK
# notes: VH; IgG4 heavy-chain constant region with stabilizing 226CPPC hinge; VL; IgG4 analog; source: HEK293 suspension cells, cotransfected, purified (Protein A)
# B7: mAb17 (analog of camrelizumab) (antibody, V domains shown)
# VH: B1 VH
# VL: B1 VL
# notes: as for B6
# B8: mAb04 (analog of retifanlimab) (antibody, V domains shown)
# VH: B2 VH
# VL: B2 VL
# notes: as for B6
# B9: mAb19 (analog of sasanlimab) (antibody, V domains shown)
# VH: QVQLVQSGAEVKKPGASVKVSCKASGYTFTSYWINWVRQAPGQGLEWMGNIYPGSSLTNYNEKFKNRVTMTRDTSTSTVYMELSSLRSEDTAVYYCARLSTGTFAYWGQGTLVTVSS
# VL: DIVMTQSPDSLAVSLGERATINCKSSQSLWDSGNQKNFLTWYQQKPGQPPKLLIYWTSYRESGVPDRFSGSGSGTDFTLTISSLQAEDVAVYYCQNDYFYPHTFGGGTKVEIK
# notes: as for B6
# Target: T1, Recombinant purified human PD-1 protein, residues Leu25-Thr168, with a C-terminal 6-His tag (Homo sapiens, UniProt Q15116)
# T1 construct: programmed cell death protein 1 (PD-1), human, residues Leu25-Thr168; also called programmed cell death protein 1; PD-1-His monomer; source: bought: R&D Systems (catalog# 8986-PD, lot# DDJM0417041)
# Test: SPR; Biacore 8K, CMD-P chip (flat); mAb captured on amine-coupled goat anti-human IgG Fc, PD-1-His monomer as analyte (100 nM top, 3-fold dilutions), 1200 s dissociation; 25 C, HBS-EP+ pH 7.4; 1:1 Langmuir fit, apparent constants
# Conditions: both partners purified
# T1 sequence (Q15116 25-168): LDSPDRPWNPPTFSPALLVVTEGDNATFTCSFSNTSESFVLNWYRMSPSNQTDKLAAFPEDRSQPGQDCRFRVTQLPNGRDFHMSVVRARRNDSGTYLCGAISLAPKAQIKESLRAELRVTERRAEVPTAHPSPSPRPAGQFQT
Kd [nM],koff [s⁻¹],kon [M⁻¹ s⁻¹],Binder
2.58,0.000497,192000,B1
0.387,0.000235,608000,B2
0.134,5.77e-05,432000,B3
0.965,0.000269,279000,B4
0.897,0.000164,183000,B5

# Target: T2, Recombinant purified human PD-1 protein, residues Leu25-Thr168, with a C-terminal 6-His tag (human, UniProt Q15116)
# T2 construct: programmed cell death protein 1 (PD-1), human, residues Leu25-Thr168; monomer; the results call it wild-type or full length PD-1 against the P35-Q167 fragment; also called PD-1-His; PD-1 His-tagged monomer; source: bought: R&D Systems; not shown: His6, C-terminal, kept
# Test: SPR; Carterra LSA, CMD-P (flat) chip; mAbs captured on goat anti-human IgG Fc in a 384-spot array; PD-1-His analyte 0.5-1000 nM, 5 min association, 20 min dissociation; HBS-ET + 0.5 mg/ml BSA; 1:1 Langmuir fit; mean of spots; apparent
# Conditions: both partners purified
# T2 sequence (Q15116 25-168): as above
Kd [nM],koff [s⁻¹],kon [M⁻¹ s⁻¹],Binder
< 0.13,< 4.3e-05,330000,B6
4,0.00073,180000,B7
0.7,0.00039,580000,B8
< 0.17,< 4.3e-05,250000,B9

# Target: T1, Recombinant purified human PD-1 …
# Test: SPR; Biacore 8K, CM5 chip (3D-hydrogel); mAb captured on amine-coupled goat anti-human IgG Fc, PD-1-His monomer as analyte (100 nM top, 3-fold dilutions), 1200 s dissociation; 25 C, HBS-EP+ pH 7.4; 1:1 Langmuir fit, apparent constants
# Conditions: both partners purified
Kd [nM],koff [s⁻¹],kon [M⁻¹ s⁻¹],Binder
4.99,0.000456,91400,B1
0.717,0.000235,328000,B2
0.277,6.03e-05,218000,B3
1.77,0.000262,148000,B4
1.75,0.000157,90100,B5

# Target: T1, Recombinant purified human PD-1 …
# Test: SPR; Biacore 8K, C1 chip (flat); mAb captured on amine-coupled goat anti-human IgG Fc, PD-1-His monomer as analyte (100 nM top, 3-fold dilutions), 1200 s dissociation; 25 C, HBS-EP+ pH 7.4; 1:1 Langmuir fit, apparent constants; 8 mAbs measured in two independent experiments
# Conditions: both partners purified
Kd [nM],koff [s⁻¹],kon [M⁻¹ s⁻¹],Binder
0.297,0.000277,933000,B2
0.128,8.72e-05,682000,B3

# Target: T3, biotinylated His-tagged PD-1 (Homo sapiens, UniProt Q15116, biotin)
# T3 construct: PD-1, His-tagged, biotinylated, used in the MSD experiments; probably the R&D Systems Leu25-Thr168 protein after biotinylation
# Test: MSD solution equilibrium titration; 100 pM biotinylated His-tagged PD-1 titrated with mAb (top 100, 50 or 10 nM binding sites), 18 h at room temperature; free antigen captured on mAb-coated MSD plates; relative KD
# Conditions: both partners purified
# T3 sequence (Q15116 whole entry, looked up, tested part not stated): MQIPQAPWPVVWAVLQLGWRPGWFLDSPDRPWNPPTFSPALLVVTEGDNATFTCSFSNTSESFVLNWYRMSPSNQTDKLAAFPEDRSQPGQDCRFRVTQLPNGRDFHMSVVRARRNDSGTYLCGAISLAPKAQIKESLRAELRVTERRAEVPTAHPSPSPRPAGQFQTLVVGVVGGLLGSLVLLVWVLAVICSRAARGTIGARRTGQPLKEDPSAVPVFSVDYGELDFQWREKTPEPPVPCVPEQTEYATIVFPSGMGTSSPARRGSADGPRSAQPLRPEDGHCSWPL
row,Kd [nM],Binder
1,0.028,B6
2,0.47,B7
3,0.056,B8
4,0.02,B9

# Target: T2, Recombinant purified human PD-1 …
# Test: SPR; Biacore 8K, flat chips (average of C1 and CMD-P); mAbs captured on goat anti-human IgG Fc; PD-1 His-tagged monomer analyte 0.4-100 nM; 25 C; HBS-EP+ pH 7.4; 1:1 Langmuir fit with mass transport; apparent
# Conditions: both partners purified
row,Kd [nM],Binder
1,< 0.12,B6
2,2.4,B7
3,0.35,B8
4,< 0.13,B9

# Target: T2, Recombinant purified human PD-1 …
# Test: SPR; Biacore 8K, 3D-hydrogel chips (average of CM5 and CMD-200M); mAbs captured on goat anti-human IgG Fc; PD-1 His-tagged monomer analyte 0.4-100 nM; 25 C; HBS-EP+ pH 7.4; 1:1 Langmuir fit with mass transport; apparent
# Conditions: both partners purified
row,Kd [nM],Binder
1,< 0.21,B6
2,4.5,B7
3,0.65,B8
4,< 0.3,B9

# Target: T1, Recombinant purified human PD-1 …
# Test: SPR; Biacore 8K, CMD-200M chip (3D-hydrogel); mAb captured on amine-coupled goat anti-human IgG Fc, PD-1-His monomer as analyte (100 nM top, 3-fold dilutions), 1200 s dissociation; 25 C, HBS-EP+ pH 7.4; 1:1 Langmuir fit, apparent constants
# Conditions: both partners purified
Kd [nM],koff [s⁻¹],kon [M⁻¹ s⁻¹],Binder
4.09,0.000503,123000,B1
0.582,0.000253,435000,B2
0.24,6.16e-05,257000,B3
1.63,0.000287,176000,B4
2.01,0.000212,105000,B5

# Target: T1, Recombinant purified human PD-1 …
# Test: SPR; Biacore 8K, C1 chip (flat); mAb captured on amine-coupled goat anti-human IgG Fc, PD-1-His monomer as analyte (100 nM top, 3-fold dilutions), 1200 s dissociation; 25 C, HBS-EP+ pH 7.4; 1:1 Langmuir fit, apparent constants; 8 mAbs measured in two independent experiments
# Conditions: both partners purified
# Remark: another data set of the same source
Kd [nM],koff [s⁻¹],kon [M⁻¹ s⁻¹],Binder
2.15,0.000526,245000,B1
0.307,0.000269,877000,B2
0.119,7.54e-05,636000,B3
0.784,0.000297,379000,B4
0.752,0.000188,250000,B5
